In the supplement of paper PMC9233669:
This sample holds only a part of the variants without activity.

What was measured:
[1] = tested on: biotinyl-Met-oxazolone; test: self-aminoacylation, catalytic enhancement (BMO) (fold over background); higher = more active; k-Seq, kA / k0A0; sequences stand for … in GGGAAUGGAUCCACAUCUACGAAUUC…UUCACUGCAGACUUGACGAAGCUG
Outline: (§1)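 Each biotinyl-aminoacyl-oxazolone, at 2–1250 μM, was incubated with mutagenized RNA pools (0.43 μM) carrying a 21-nt variable region. The 50 μL reactions contained HEPES/NaCl/KCl/MgCl2/CaCl2 buffer with 5% acetonitrile at pH 6.9–7.0 and ran for 90 minutes at room temperature. After streptavidin capture, RNA was measured by qPCR in triplicate and by Illumina sequencing, and catalytic enhancement was calculated as median kA over the uncatalyzed rate from a pseudo-first-order fit of per-sequence fraction reacted.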

[2] = tested on: biotinyl-Leu-oxazolone; test: self-aminoacylation, catalytic enhancement (BLO) (fold over background); higher = more active; k-Seq, kA / k0A0; sequences stand for … in GGGAAUGGAUCCACAUCUACGAAUUC…UUCACUGCAGACUUGACGAAGCUG
Outline: as §1

[3] = tested on: biotinyl-Val-oxazolone; test: self-aminoacylation, catalytic enhancement (BVO) (fold over background); higher = more active; k-Seq, kA / k0A0; sequences stand for … in GGGAAUGGAUCCACAUCUACGAAUUC…UUCACUGCAGACUUGACGAAGCUG
Outline: as §1

[4] = tested on: biotinyl-Trp-oxazolone; test: self-aminoacylation, catalytic enhancement (BWO) (fold over background); higher = more active; k-Seq, kA / k0A0; sequences stand for … in GGGAAUGGAUCCACAUCUACGAAUUC…UUCACUGCAGACUUGACGAAGCUG
Outline: as §1

[5] = tested on: biotinyl-Phe-oxazolone; test: self-aminoacylation, catalytic enhancement (BFO) (fold over background); higher = more active; k-Seq, kA / k0A0; sequences stand for … in GGGAAUGGAUCCACAUCUACGAAUUC…UUCACUGCAGACUUGACGAAGCUG
Outline: as §1

[6] = tested on: biotinyl-Ile-oxazolone; test: self-aminoacylation, catalytic enhancement (BIO) (fold over background); higher = more active; k-Seq, kA / k0A0; sequences stand for … in GGGAAUGGAUCCACAUCUACGAAUUC…UUCACUGCAGACUUGACGAAGCUG
Outline: as §1

Sequence | self-aminoacylation [1] | self-aminoacylation [2] | self-aminoacylation [3] | self-aminoacylation [4] | self-aminoacylation [5] | self-aminoacylation [6]
AUUACCCUGGUCAUCGUUUGA [Fam2.1 aminoacylation ribozyme variant] | 0.71 | 0.963 | 0.821 | 0.734 | 0.693 | 0.923
AUUACCCUGGUCAUCUACUGA [Fam2.1 aminoacylation ribozyme variant] | 0.663 | 0.676 | 0.856 | 0.358 | 0.799 | 0.925
AUUACCCUGGUCAUCUAGGGA [Fam2.1 aminoacylation ribozyme variant] | 1.17 | 1.47 | 1.32 | 0.956 | 1.72 | 1.36
AUUACCCUGGUCAUCUAGUGG [Fam2.1 aminoacylation ribozyme variant] | 2.14 | 2.32 | 1.48 | 2.08 | 2.7 | 1.3
AUUACCCUGGUCAUCUAUUGA [Fam2.1 aminoacylation ribozyme variant] | 0.879 | 0.839 | 1.11 | 0.789 | 0.868 | 1.08
AUUACCCUGGUCAUGGAGCGA [Fam2.1 aminoacylation ribozyme variant] | 1.59 | 1.72 | 1.29 | 1.32 | 3.2 | 1.27
AUUACCCUGGUCAUGGCGUGA [Fam2.1 aminoacylation ribozyme variant] | 16.2 | 17.4 | 10.3 | 19.4 | 125 | 7
AUUACCCUGGUCAUUGUGUGA [Fam2.1 aminoacylation ribozyme variant] | 2.59 | 2.23 | 1.49 | 3.23 | 8.81 | 1.46
AUUACCCUGGUCCUCCAGUGA [Fam2.1 aminoacylation ribozyme variant] | 7.44 | 8.6 | 3.79 | 9.12 | 49.6 | 4.44
AUUACCCUGGUCCUUGAGUGA [Fam2.1 aminoacylation ribozyme variant] | 8.05 | 8.35 | 3.86 | 9.98 | 56.2 | 3.86
AUUACCCUGGUCGUCGAGUGU [Fam2.1 aminoacylation ribozyme variant] | 1.39 | 1.08 | 1.2 | 1.15 | 2.78 | 1.07
AUUACCCUGGUCUUCGAGCGA [Fam2.1 aminoacylation ribozyme variant] | 1.09 | 1.11 | 1.23 | 1.16 | 0.753 | 0.901
AUUACCCUGGUCUUCGAGGGA [Fam2.1 aminoacylation ribozyme variant] | 1.15 | 1.54 | 1.35 | 1.31 | 0.74 | 1.5
AUUACCCUGGUCUUCGAGUGU [Fam2.1 aminoacylation ribozyme variant] | 1.96 | 2.03 | 1.57 | 2.23 | 1.76 | 1.52
AUUACCCUGGUCUUUGAGUGA [Fam2.1 aminoacylation ribozyme variant] | 7.29 | 8.33 | 4.17 | 9.67 | 41.8 | 4.05
AUUACCCUGGUGACCGAGUGA [Fam2.1 aminoacylation ribozyme variant] | 9.44 | 11.1 | 4.93 | 12.5 | 66.1 | 4.29
AUUACCCUGGUGAUCGAGCGA [Fam2.1 aminoacylation ribozyme variant] | 1.76 | 1.93 | 1.95 | 1.82 | 5 | 2.06
AUUACCCUGGUGAUCGAGUAA [Fam2.1 aminoacylation ribozyme variant] | 1.54 | 1.21 | 1.23 | 2.15 | 0.541 | 1.24
AUUACCCUGGUGAUCGGGUGA [Fam2.1 aminoacylation ribozyme variant] | 5.18 | 7.07 | 4.27 | 6.86 | 39.5 | 3.43
AUUACCCUGGUGAUCUAGUGA [Fam2.1 aminoacylation ribozyme variant] | 7.61 | 6.59 | 3.29 | 8.61 | 45.1 | 3.11
AUUACCCUGGUUAUCCAGUGA [Fam2.1 aminoacylation ribozyme variant] | 11.5 | 11.6 | 5.13 | 14.2 | 74.4 | 5.5
AUUACCCUGGUUAUCGAAUGA [Fam2.1 aminoacylation ribozyme variant] | 0.971 | 0.866 | 0.846 | 0.677 | 0.877 | 0.965
AUUACCCUGGUUAUGGAGUGA [Fam2.1 aminoacylation ribozyme variant] | 7.77 | 7.9 | 3.93 | 8.01 | 47.4 | 3.95
AUUACCCUGGUUUUCGAGUGA [Fam2.1 aminoacylation ribozyme variant] | 8.29 | 9.42 | 4.43 | 10.9 | 45.7 | 3.74
AUUACCCUGUUCAACGAGUGA [Fam2.1 aminoacylation ribozyme variant] | 11.2 | 11.8 | 5.18 | 13.4 | 57 | 5.25
AUUACCCUGUUCAUCGAAUGA [Fam2.1 aminoacylation ribozyme variant] | 1.16 | 0.871 | 1.13 | 0.767 | 1.18 | 0.982
